Measurements as given in the supplement of paper PMC12667976.

B1: library; numbered along this chain (parent)
chain: MATDAALRRLLRLHRTEIAVAVDSAFPLLHALADHDVVPEDKFQETLHLKEKEGCPQAFHALLSWLLTQDSTAILDFWRVLFKDYNLERYGRLQPILDSFPKDVDLSQPRKGRKPPAVPKALVPPPRLPTKRKASEEARAAAPAALTPRGTASPGSQLKAKPPKKPESSAEQQRLPLGNGIQTMSASVQRAVAMSSGDVPGARGAVEGILIQQVFESGGSKKCIQVGGEFYTPSKFEDSGSGKNKARSSSGPKPLVRAKGAQGAAPGGGEARLGQQGSVPAPLALPSDPQLHQKNEDECAVCRDGGELICCDGCPRAFHLACLSPPLREIPSGTWRCSSCLQATVQEVQPRAEEPRPQEPPVETPLPPGLRSAGEEVRGPPGEPLAGMDTTLVYKHLPAPPSAAPLPGLDSSALHPLLCVGPEGQQNLAPGARCGVCGDGTDVLRCTHCAAAFHWRCHFPAGTSRPGTGLRCRSCSGDVTPAPVEGVLAPSPARLAPGPAKDDTASHEPALHRDDLESLLSEHTFDGILQWAIQSMARPAAPFPS

Variants of: B1
Assay: AIRE transcriptional activation functional score (insulin promoter-GFP; nonsense median 0, synonymous median 1) (normalised score); higher = higher AIRE activity (more reporter activation)
Conditions: with insulin promoter-GFP reporter in HEK293
Procedure, shortened: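 Three regions of AIRE were covered by codon-optimized NNN-codon libraries, which Bxb1 recombinase integrated into Flp-In T-REx HEK293 landing-pad cells that carry an insulin core promoter-GFP reporter. Integrants (mCherry+, BFP−) were sorted at day 7 and expanded 7 days, and then the top 10% GFP population and the unselected integrant population were tile-sequenced. The functional score is the enrichment of each variant in select versus non-select cells, with wild type subtracted. Variants required 10 counts per million in non-select, and values were rescaled to a nonsense median of 0 and a synonymous median of 1, then averaged over biological replicates.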

AIRE transcriptional activation functional score of substitutions, site by site:
G469: A 0.409 | S 1.15 | T 0.687 | P 0.911 | I 0.951 | D 0.77 | Q 0.807 | F 1.42 | K 0.564 | W 1.08 | E 0.672 | M 1.18 | H 1.19 | L 0.726 | R 0.913 | V 1.14 | N 1 | C 1.56
H458: A 0.981 | K 0.374 | I -0.227 | L 0.474 | C 1.02 | G 0.842 | Q 0.165 | V 0.655 | E 0.661 | P 0.0561 | T 1.16 | D 1.4 | N 0.71 | Y 0.864 | F 0.227 | M 0.387 | R 0.586 | S 0.164
C457: Y 0.105 | D 0.0222 | P 0.211 | R -0.0861 | M -0.234 | V 0.0733 | L -0.0524 | Q 0.613 | F 0.264 | G 0.0376 | T -0.0599 | I -0.23 | A 0.0339 | H 0.798 | S -0.11 | E 0.0401 | W 0.0502
F453: V 0.154 | P 0.207 | R 0.106 | Q -0.136 | E -0.452 | H 0.147 | M 0.268 | N 0.22 | G 0.315 | T 0.101 | S 0.166 | W 1.24 | I 0.235 | L 0.17 | Y 0.32 | K -0.248
R465: S 1.04 | F 1.15 | Q 0.443 | T -0.654 | A 0.476 | P 0.829 | H 0.546 | G 0.791 | M 0.403 | N -1.1 | D 0.53 | L 1.01 | W 1.18 | C 0.66 | Y 1.39 | V 0.453 | I 0.773
R471: H 1.03 | E 0.786 | D 0.476 | A 0.351 | G 0.676 | C 0.215 | F 1.09
R456: Q 1.13 | F -0.0642 | A 1.16 | C 1.3 | T 1.32 | W -0.304 | V -0.245 | E 1.24 | N 0.016 | D 0.851 | K 0.0856 | S 0.726 | G 1.27 | I 1.1 | P 1.1 | L 1.04 | H 1.2 | Y 1.51
P466: V 1.06 | G 1.23 | R 0.843 | H 1.46 | Y 1.21 | W 1.42 | N 0.444 | F 0.774 | I 1.21 | K 0.864 | T 1.12 | E 0.232 | L 1.1 | A 0.83 | C 1.89 | M 0.678 | Q 1.02 | S 1.08 | D 0.553
T463: P 1.14 | I 0.876 | N 0.736 | F 0.0316 | S 1.01 | A 0.614 | V 1.49 | W 1.05 | R 0.998 | K 0.983 | C 1.42 | D 1.54 | M 1.51 | H 0.813 | L 1.06 | Y 0.384 | Q 0.155 | G 1.01
A461: Q 0.964 | W 1.01 | Y 1.16 | T 0.39 | S 1.22 | P 1.19 | E 0.952 | I 0.816 | R 0.878 | N 1.38 | H 1.23 | K 1.18 | L 1.28 | V 1.17 | C 0.883 | F 1.21 | D 0.676 | G 1.29 | M 1.27
W455: S 0.675 | P 1.3 | Q 1.09 | V 1.17 | C 1.09 | H 0.823 | A 1.1 | I 0.29 | K 0.572 | N 1.34 | Y 0.988 | G 0.965 | L 1.03 | E 1.17 | T 0.727 | F 1.3 | M 0.774 | D 0.9 | R 0.879
P460: R 0.824 | G 0.909 | T 0.871 | M 1.17 | L 0.827 | Q 0.787 | H 1.05 | K 0.952 | N 1.07 | S 0.714 | D 0.0955 | C -0.358 | A 1.14 | Y 0.38 | V 0.608 | I 1.01 | F 0.995 | E 1.16
G467: A 0.947 | V 1.06 | T 0.0754 | N 0.68 | C 0.822 | R 1.01 | W 1.12 | S 1.06 | I 0.79 | E 1.16 | H 1.42 | D 0.675 | M 0.866 | F 1.29 | L 1.46 | K 0.889 | P 1.04 | Y 0.488
T468: Y 1.25 | N 1.08 | G 1.08 | A 1.03 | E 0.46 | F 1.02 | H 0.996 | V 0.997 | C 1.14 | M 1.12 | P 0.984 | D 1.18 | L 1.18 | S 0.945 | K 0.654 | W 1.29 | Q 1.22 | I 1.16 | R 0.696
H454: C 0.499 | D 0.289 | L -0.161 | A -0.16 | R -0.0692 | M -0.148 | P 0.129 | E 0.0475 | G 0.0883 | V 0.0829 | Q 0.0498 | I -0.0282 | T 0.0122 | S -0.00319 | W 0.31 | F 0.117 | K 0.0788 | Y 0.205 | N -0.0603
L470: C 0.85 | S 0.622 | G 0.741 | W 1.38 | R 0.997 | D 0.572 | Y 0.549 | V 0.842 | P 0.863 | K 0.988 | Q 1.11 | E 0.628 | F 0.971 | H 0.541 | I 0.814 | T 0.558 | M 0.671 | N 1.06 | A 1.02
F459: Q 1.14 | K 0.78 | S 0.591 | N 1.27 | H 1 | Y 1.3 | T 0.589 | A 0.0803 | D 0.929 | W 0.395 | C 0.343 | L 0.464 | P 0.572 | R 0.444 | V 0.585 | G 0.834 | I 0.371 | E 0.803
S464: C 1.18 | H 1.17 | N 0.563 | D 0.7 | F 0.807 | M -0.078 | E 1.32 | Y 1.23 | P 1.21 | W -0.451 | V 0.722 | I 1.17 | T 0.783 | G 1.27 | A 0.955 | K 1.18 | L 1.06 | R 0.955
G462: N 1.34 | S 0.982 | Q 1.03 | C 0.984 | H 0.925 | R 1.01 | E 0.465 | A 0.924 | V 1.03 | I 0.802 | T 0.372 | L 0.83 | W 0.899 | M -0.0181 | D 0.731 | K -0.837 | F 1.26 | Y 1.24 | P 0.607
